T1: VEGFR-3-Fc (UniProt P35916 25-328)
T1 construct: domain: first three Ig domains; conditioned supernatant of 293T cells; also called VEGFR-3-Fc fusion protein; not shown: Fc fragment of the pIg vector
T1 sequence (looked up): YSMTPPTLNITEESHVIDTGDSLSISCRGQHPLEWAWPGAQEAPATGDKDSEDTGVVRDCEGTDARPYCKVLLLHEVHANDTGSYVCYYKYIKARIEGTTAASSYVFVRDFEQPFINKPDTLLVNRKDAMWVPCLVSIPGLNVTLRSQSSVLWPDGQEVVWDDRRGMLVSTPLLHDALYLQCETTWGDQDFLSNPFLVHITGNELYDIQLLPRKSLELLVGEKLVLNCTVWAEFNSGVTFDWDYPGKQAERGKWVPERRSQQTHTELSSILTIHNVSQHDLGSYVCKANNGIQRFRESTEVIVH

B1: 63-1 (ligand)
chain: GQNHHEVVKFMDVYQRSYCHPREVCIDVGKEYPDEIEYIFKPPCVSVYRCGGCCNDEGLECVPTEESNITMQIMRIKPHQGQHIGEMSFLQHNKCECRPKKD
B2: 64-14 (ligand)
chain: GQNHHEVVKFMDVYQRSYCHPREVCIDVGKEFGVATNTFFKPSCVPLMRCGGCCNDEGLECMNTSTSYLSKTLFEITVPLSQGPKPVTISFANHTSCRCMSKLD
B3: 64-16 (ligand)
chain: B2 chain with D56S, E60Q
B4: 71-11 (ligand)
chain: GQNHHEVVKSIDNEWRKTQCMPREVCIDVGKEYPDEIEYIFKPSCVPLMRCGGCCNSEGLQCVPTEESNITMQIMRITVPLSQGPKPVTISFLQHNKCECRPKKD
B5: 74-11 (ligand)
chain: B4 chain with Y33F, P34G, D35V, E36A, I37T, E38N, Y39T, I40F
B6: 33-11 (ligand)
chain: GQNHHEVVKSIDNEWRKTQCMPIETLVDIFQEYPDEIEYIFKPPCVSVYRCGGCCNSEGLQCVPTEESNITMQIMRITVPLSQGPKPVTISFLQHNKCECRPKKD
B7: 31-11 (ligand)
chain: B6 chain with P44S, S47P, V48L, Y49M
B8: 71-15 (ligand)
chain: B4 chain with L93A, Q94N, N96T, K97S, E99R, R101M, P102S, K104L
B9: 71-13 (ligand)
chain: B4 chain with S57D, Q61E, L93A, Q94N, N96T, K97S, E99R, R101M, P102S, K104L
B10: 23-11 (ligand)
chain: AHYNTEILKSIDNEWRKTQCMPREVCIDVGKEYPDEIEYIFKPPCVSVYRCGGCCNSEGLQCVPTEESNITMQIMRITVPLSQGPKPVTISFLQHNKCECRPKKD
B11: 21-11 (ligand)
chain: B10 chain with P44S, S47P, V48L, Y49M
B12: 73-15 (ligand)
chain: GQNHHEVVKSIDNEWRKTQCMPREVCIDVGKEYPDEIEYIFKPPCVSVYRCGGCCNSEGLQCVPTEESNITMQIMRITVPLSQGPKPVTISFANHTSCRCMSKLD
B13: 31-3 (ligand)
chain: B6 chain with P44S, S47P, V48L, Y49M, S57D, Q61E
B14: 61-13 (ligand)
chain: GQNHHEVVKFMDVYQRSYCHPREVCIDVGKEYPDEIEYIFKPSCVPLMRCGGCCNDEGLECVPTEESNITMQIMRITVPLSQGPKPVTISFANHTSCRCMSKLD
B15: 43-13 (ligand)
chain: AHYNTEILKFMDVYQRSYCHPREVCIDVGKEYPDEIEYIFKPPCVSVYRCGGCCNDEGLECVPTEESNITMQIMRITVPLSQGPKPVTISFANHTSCRCMSKLD
B16: 13-13 (ligand)
chain: GQNHHEVVKFMDVYQRSYCHPIETLVDIFQEYPDEIEYIFKPPCVSVYRCGGCCNDEGLECVPTEESNITMQIMRITVPLSQGPKPVTISFANHTSCRCMSKLD
B17: 63-9 (ligand)
chain: GQNHHEVVKFMDVYQRSYCHPREVCIDVGKEYPDEIEYIFKPPCVSVYRCGGCCNDEGLECVPTEESNITMQIMRITVPLSQGPKPVTISFLQHNKCECRPKKD
B18: 62-13 (ligand)
chain: GQNHHEVVKFMDVYQRSYCHPREVCIDVGKEFGVATNTFFKPPCVSVYRCGGCCNDEGLECVPTEESNITMQIMRITVPLSQGPKPVTISFANHTSCRCMSKLD
B19: 73-7 (ligand)
chain: GQNHHEVVKSIDNEWRKTQCMPREVCIDVGKEYPDEIEYIFKPPCVSVYRCGGCCNSEGLQCVPTEESNITMQIMRIKPHQGQHIGEMSFANHTSCRCMSKLD
B20: 62-11 (ligand)
chain: B18 chain with D56S, E60Q, A92L, N93Q, T95N, S96K, R98E, M100R, S101P, L103K

The values below come from patent US20080058263A1 (published 2008).

Positions count from the first letter of the chain named.

In one assay the target is T1, VEGFR-3-Fc. Nature of the assay: receptor-Fc IP. In short, it runs like this: (§1)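 fusion protein at 400 ng/ml in an IP mix (PBS, 1.5% BSA, 0.06% Tween 20, 3 μg/ml heparin) was combined with sample supernatant at a 1:2 ratio. Bound ligand captured by immunoprecipitation with pentahistidine antibody.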
Regarding B1, the binding result was “no binding”.

As to B2, the binding result is on record as “no binding”.

B3: the binding result is on record as “no binding”.

In the case of B4, the binding result is given as “no binding”.

On to B5, for which the binding result is given as “no binding”.

As to B6, the binding result was “no binding”.

Regarding B7, the binding result was “no binding”.

Turning to B8, the binding result is “no binding”.

Take B9: the binding result is recorded as “no binding”.

On to B10, for which the binding result is listed as “no binding”.

For the molecule B11, the binding result is “no binding”.

With B12, the binding result is “no binding”.

As to B13, the binding result is “no binding”.

Consider B14, for which the binding result is reported as “no binding”.

Turning to B15, the binding result is recorded as “no binding”.

Consider B16, for which the binding result is reported as “no binding”.

On to B17, for which the binding result is on record as “no binding”.

B18: the binding result was “no binding”.

Take B19: the binding result was “no binding”.

B20: the binding result is on record as “binds”.

In the next assay the target is T2, VEGFR-1-Fc (UniProt P17948 27-338).
T2 construct: domain: first three Ig domains; expressed in Drosophila S2 cells, purified on Protein A sepharose; also called VEGFR-1-Fc fusion protein; not shown: Fc fragment from the Signal-pIgPlus vector
T2 sequence (P17948 27-338): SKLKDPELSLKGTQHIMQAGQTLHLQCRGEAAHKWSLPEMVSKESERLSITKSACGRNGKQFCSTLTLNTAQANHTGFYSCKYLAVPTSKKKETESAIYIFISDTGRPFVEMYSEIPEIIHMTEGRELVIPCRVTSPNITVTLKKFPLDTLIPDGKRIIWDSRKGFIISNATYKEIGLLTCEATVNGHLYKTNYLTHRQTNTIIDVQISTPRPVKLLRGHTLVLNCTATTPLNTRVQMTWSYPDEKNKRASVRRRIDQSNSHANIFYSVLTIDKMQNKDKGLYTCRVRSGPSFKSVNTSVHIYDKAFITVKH
The assay is described as follows: receptor-Fc IP. In short, it runs like this:
as §1
B1: the binding result is on record as “binds”.

For the molecule B2, the binding result was “no binding”.

Take B3: the binding result is reported as “no binding”.

B4: the binding result was “no binding”.

Take B5: the binding result is given as “no binding”.

B6: the binding result was “no binding”.

For B7, the binding result is given as “no binding”.

Consider B8, for which the binding result is listed as “no binding”.

B9: the binding result is “no binding”.

For the molecule B10, the binding result is given as “no binding”.

As for B11, the binding result is given as “no binding”.

In the case of B12, the binding result is “no binding”.

For the molecule B13, the binding result is on record as “no binding”.

For the molecule B14, the binding result was “no binding”.

Take B15: the binding result is on record as “no binding”.

With B16, the binding result is given as “binds”.

As for B17, the binding result is recorded as “no binding”.

As for B18, the binding result was “no binding”.

With B19, the binding result is on record as “no binding”.

As to B20, the binding result is on record as “no binding”.

For the next assay, the target named is T3, VEGFR-2-Fc (UniProt P35968 20-322).
T3 construct: domain: first 3 Ig domains; conditioned supernatant of 293T cells; also called VEGFR-2-Fc fusion protein; not shown: Fc fragment of the pIg vector
T3 sequence (P35968 20-322): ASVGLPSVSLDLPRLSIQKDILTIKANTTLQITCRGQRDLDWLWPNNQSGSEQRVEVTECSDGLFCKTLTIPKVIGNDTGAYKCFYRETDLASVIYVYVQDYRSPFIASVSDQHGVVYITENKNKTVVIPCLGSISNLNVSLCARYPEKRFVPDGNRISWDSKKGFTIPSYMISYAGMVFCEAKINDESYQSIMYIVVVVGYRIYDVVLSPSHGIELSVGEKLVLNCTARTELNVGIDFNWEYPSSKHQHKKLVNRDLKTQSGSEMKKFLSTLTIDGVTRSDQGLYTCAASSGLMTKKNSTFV
The assay is described as follows: receptor-Fc IP. The method, boiled down: as §1
For the molecule B1, the binding result is listed as “binds”.

On to B2, for which the binding result was “no binding”.

For the molecule B3, the binding result is recorded as “no binding”.

B4: the binding result was “no binding”.

For B5, the binding result is “no binding”.

As to B6, the binding result is “no binding”.

Consider B7, for which the binding result was “no binding”.

B8: the binding result is on record as “no binding”.

With B9, the binding result was “no binding”.

As for B10, the binding result is reported as “no binding”.

As to B11, the binding result is on record as “no binding”.

Regarding B12, the binding result is “binds”.

For the molecule B13, the binding result is “no binding”.

For B14, the binding result was “no binding”.

Turning to B15, the binding result is on record as “no binding”.

Take B16: the binding result is on record as “no binding”.

For B17, the binding result is on record as “no binding”.

With B18, the binding result is reported as “binds”.

On to B19, for which the binding result is “binds”.

Regarding B20, the binding result is listed as “binds”.
